# The nanobody polyreactivity screen of Harvey et al. (2022)
# Assay: yeast display, Sf9 membrane polyspecificity reagent, FACS + sequencing; frameworks hold sequencing errors
# Outline: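 In a synthetic yeast display library (Saccharomyces cerevisiae BJ5465), nanobody expression was induced with galactose for 36–48 hours. FACS gates were set low and high (top ~1%) using anti-HA fluorescence for expression and streptavidin fluorescence for binding of the Sf9 membrane reagent. Each polyreactivity label is drawn from the gate of origin.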
row,Sequence,polyreactivity (PSR sort gate)
1,QVQLVESGGGLVQAGGSLRISCAASGFTFGVYAMGWYRPAPGKEREFVASISFSGGRTYYSDSVKGRFTISRDNAKNTVYLQMNSLKPEDTAVYYCAKRWSADDYWGQGTQVTVSS,high polyreactivity
2,QVQLVESGGGLVQAGGSLRLSCAASGSIFRYYAMGWYRQAPGKERELVAAINSRGGTTYYADSVKGRFTISRDNAKNTVYLQMNSLKPEDTAVYYCAAGYPPLHTSVQQTAHYGLDYWGQGTQVTVSS,high polyreactivity
3,QVQLVESGGGLVQAGGSLRLSCAASGITFSHNAMGWYRQAPGKERELVAAITRSGGSTYYADSVKGRFTISRDNAKNTVYLQMNCLKPEDTAVYYCATEDYYRQYGYWSLSRMDHWGQGTQVTVSS,low polyreactivity
4,QVQLVESGGGIVQAGGSLRLSCAASGRIFLTNAKGWYRQAPGKERELVATITASGGTTYYADSVKGRFTISRDNAKNTVYLQMNSLKTEDTAVYYCAKRYYLRGYGRYYYWGQGTQVTVSS,high polyreactivity
5,QVQLVESGGGLVQAGGSLRLSCSASGLTFKENAMGWYRQAPGTERELVAAISKGGGSTFYADSVKGRFTISRDNAKNTVYLQMNTLKPEDTAVYYCNADVGYRGGEEDYWGQGTQVTVSS,low polyreactivity
6,QVQLVESGGGLVQAGGSLRLSCAASGSTFQYNAMGWYRQAPGKERELVAVITRRGGRTYYADSVKGRFTISRDNAKNTVYLQMNSLKPEDTAVYYCAAYYDYTHRFYYWGQGTQVTVSS,high polyreactivity
7,QVQHVESGGGLVQAGGSLRLSCAASGSTFPANAMGRYRQAPVKERELVAVISSGGRTYYADSVKGRFTISRDNAKNTVYLQLNSLKPEDTEVYYCAAGSYAGSGPSPWLEYWGQGTQVTVSS,high polyreactivity
8,QVQLVESGGGLVQAGGSLRLSCAASGRIFVYNVMGWYSQSPGKERELVAAISWGTGSTYADSVKGRFTISRDNAKNTVYLQMNSLKPEDTAVYYCADDSFIPPYDHWGQGTQVTVSS,low polyreactivity
9,QVQLVESGGGLVQAGGSLRLSCAASGSIFSYYAMGWYRQAPGKERELVADITANDGSTYYADSVKGRFTISRDNAKNTVYLQMHSLKPEVTAVYYCAAASDLYGSIWIETGVTSDYWGQGTQVTVSS,high polyreactivity
10,QVQLVESGGGLVQAGGSLRLSCAASGYIFGWYAMGWYRQAPGKERELVATIDWSGDSTYYADSVKGRFTISRDNAKNTVYLQMNSLKPEDTAVYYCSAGVGYITYYGYDYWGQGTQVTVSS,low polyreactivity
11,QVQLVESGGGLFQEGGSLRLSCAPSGSTLVFYAMGWYRHAPGKERELVAAITRSGGSTYYADSVKGRFTISRDNAKNTVYLQRNSLKPEDTAVYNCAADERYINERVSWGQGTQVTVSS,low polyreactivity
12,HVQLVESVGGLVQAGGSLRLSCAASGSTFFYNAMAWYRQAPGKERELVAAITVTGNSTYYADSVKGRFTISRDNAKNTVYLQMNSLKPEDTAVYYCNTSLKRRRLRFNYWGQGTQVTVSS,low polyreactivity
13,QVQLVESGGGLVQAGGSLRLSCAASGRIFYPYVMGWYRQAPGKERELVAAISDTTGSTYYADSVKGRFTISRDNAKNTVYLQMNSLKPEDTEVFYCAAGWFYATYWRFYYWGQGTQVTVSS,low polyreactivity
14,QVQLVESGGGLVQAGGSLRLSCAASGSIFDYNAMGWYRQATGKERELVAAISSDGSTYYADSVKGRFTISRDNAKNSVYLQMNSLKPEDTAVYYCAADSVYSWSDYWGQGTQVTVSS,low polyreactivity
15,QVQLVESGGGLVQAGGSLRLSCAASGRIFVFNAMGWYRQAPGKERELVAAISRRGGSTYYADSVKGRFTISRDNAKNTVYLQMNSLKPEVTAVYYCAAVYPDYSSARYDYWGQGTQVTVSS,high polyreactivity
16,QVQLVESGGGLVQAGGSLRLSCAASGSTFAPYAMGWYRQAPGKERELVASISWRGGRTYYADSVKGRFTISRDNAKNTVYLQMNSLKPEDTAVYYCATSRYRVDRWGPPYRYDYWGQGTQVTVSS,high polyreactivity
17,QVQLVESGGGLFQAGGSLRLSCAASGSIFYYYAMGWYRQAPGKERELVAAITRSSGSTYADSVKGRFTISGDNAMYTVYVQMNSLKPEDTAVYYCATVQSDWRRNYSYYHWGQATQVTVSS,high polyreactivity
18,QVQLVESGGGLVQAGGRLRLSCAASGSIFYHYAMGWSRQAPGKERELVAAISQSGGGTYYADSVKGRFTISRDYAKNTVYLQMNSLKPEDTAVYYCAADRTGPYDYWGQGTQVTVSS,high polyreactivity
19,QVQLVESGGGLVHAGGSLRLSCAASGRTFNWNAMGWYRQEPGKEREFVASINGGGSSYYADSVKGRFTISRDNAKNTVYLQMNSLKPDDTAVYYCAAPWVGTFVSGRCYYWGQGTHVTVSS,low polyreactivity
20,QVQLVESGGGLVQAGGSLRLSCAASGIIFGYYAMGWYRQAPGKERELVAGISSSDSTYYADSVKGRFTISRDNAKNTVYLQMNSLKPEDTAVYYCATPVYRSTYEYDYWGQGTQVTVSS,low polyreactivity
21,QVQLVESGGGLVQAGGSLRLSCAASGLIFRAYAMGWYRQAPGKETELVAAITWNGGSTNYADSVKGRFTISRDNAKNTVYLQMHSLKPEDTAVYYCAAGSSRVFRKAGITRPSGLYYYWGQGTQVTVSS,high polyreactivity

row,Sequence,polyreactivity (PSR sort gate)
1,QVQLVESGGGLVQAGGSLRLSCAASGRIFYSNAIGWYRQAPGKERELVAAIRDSAGSTRYADSVKGRFTISRDNAKNTVYLQMNSLKPVDTAVYYCNKDYVSIYFEYLDDYWGQGTQVTVSS,low polyreactivity
2,QVQHVESGGALVQAGGSLRLSCAASGSTYYIYAMGWYRHGPGKERELVARISGSGGSTYYADSVKGRFTISRDNAKNTVYLQMNSLKPEDTAVYYCAADDIYKYYQYYAFQYFRYDYWGQGTQVTVSS,low polyreactivity
3,QDQRVDSGGGLVQAGGSLRLSCTAYGFIFGWYAMGWYRQSPGKASQLVAPISQSVGSTYYADSVKGRFTISRDNAKNTVYLQMNSLKPEDSAVYYCNAVGRGSRSRLSSRAGGGDYWGQGTQVTVSS,high polyreactivity
4,QVQLVESGGGLVQAGGSLRLSCAASGSTFSEYGMGWYRQAPGKERELVARITSGGSPYYADSVKGRFTISRDNAKYTVYLQMNSLKPEDTAVYYCATVKTRDYWGQGTQVTVSS,low polyreactivity
5,QVQLVESGGGLVQAGGSLRLSCAASGSNFTLYAMGWYRPAPGKERELVAAISRRGDRTYYADSVKGRFTISRDNAKNTVYLQMNSLKPADTAVYSCNARRAPPLPYYYWGQGTQVTVSS,high polyreactivity
6,QVQLVESGGGLVQAGGSLRLSCAASGNTFYAYAMGWYRQAPGKERELVAAIARGGNTYYADSVKGRFTISRDNAKNTVYLQMNSLKPEDTAVYYCHAYYPIRSSPYGYYYWGQGTQVTVSS,high polyreactivity
7,QVQLVESGGGLVQAGGSLRLSCAASGLTFFLYAMGWYRQAPGKERELVAAISSRGGSTYYADSVKGRFTISRDNAKNTVYLQMNSLKTEDTAVYYCAAATKGDEDYWGQGTQVTVSS,high polyreactivity
8,QVQLVESGGGLVQAGGSLRLSCAASGITFVRYAMGWYRQAPGKERELVATINWSGGSTYYADSVKGRFTISRDNAKNTVYLQMNSLKPEDTAVYYCAAYYVHPVYDVGHYDYWGQGTQVTVSS,low polyreactivity
9,QVQLVESGGGLVQAGGSLRLSCAASGSTFPTYAMGWYRQAPGKERELVAAISFSGARTYYADSVKGRFTISRDNAKNTVYLQMNSLKPEDTAVYYCAKASSYSRRYEYWGQGTQVTVSS,high polyreactivity
10,QVQLVESGGGLVQAGGSLRLSCAASGRTFTYNTMGWYRQAPGKERELVAAISSSGGSTYYADSVKGRFTISRDNAKNTVYLQMNSLKPEDTAVYYCAKRYFSSSRYYYWGQGTQVTVSS,high polyreactivity
11,QVQLVESGGGLVQAGGSLRLSCAASGSTFHGYDMGWYRQAPGKERELVAAITSSGDDTYYADSEKGRFTISLDNAKNTVYLQMNSLKPEDTAVYYCAAEYTEGYTHDYWGQGTQVTVSS,low polyreactivity
12,QVQLVESGGGLVQAGGSLRLICAASGRIFGTNAKGWYRQAPGKERELVADITSGGSTNYADSVKGRFTISRDNAKNTVYLQMNSLKPEDTAVYYCAADVIGDLRWYRDEYWGQGTQVTVSS,low polyreactivity
13,QVQLVESAGGLVQAGGSLRLSCAASGYTLYLNAMGWYRQAPGKERELVARISGGGSTNYADSVKGRFTISRDNAKNTVYLQMNSLKPEDTAVYYCAASIFAYGYRSFQLDYWGQGTQVTVSS,low polyreactivity
14,QVQLVESGGGIVQAGGSLRLSCAASGRIFTRNAMGWYRQAPGKERELVAAISYSGGTTYYADSVKGRFTISRDNAKNTVYLQMNSLKPEDTAVYYCAALRPTQRYFTYDYWGQGTQVTVSS,high polyreactivity
15,QVQLVESGGGLVQAGGSLRLSCSASGNTIRYYALGWYRQAPGKERELVATITSGGRTYYADSVKGRFTISRDNAKNTVYLQMNSLKPEDTAVYYCAAGSRSDARRYYYWGQGTQVTVSS,low polyreactivity
16,QVQLVESGGGLVQAGGSLRLSCAASGLIFGDYAMGWYRPAPGKERELVAAITGSVTRTYYADSVKGRFTISRDNAKNTVYLQMNSLKPEDTAVYYCATRVHYIGFYDYDYWGQGTQVTVSS,low polyreactivity
17,QVQLVESGGGLVQAGRSLRLSCAASGRIFRVNAMGWYRQAPRKERQLVAAISVRGGSTYYADSVKGRFTISRDNAKNTVYLQMNSLKPEDTAVYYCAAPLVYFTPRYDYWGQGTQVTVSS,high polyreactivity
18,QVQLVESGGGLVQAVGSLRLSCAASGSTFNRYALGWYRQAPGKERQLVAAITVRGNTYYADSVKGRFTISRDNAKNTVYLQMNSLKPEDTAVYYCAARIYYLYKDRRLGYYWGQGTQVTVSS,high polyreactivity
19,QVQLVESGGGIVQAGGSLRLSCAASGFISSVNAMGWYRQAPGKDRELVAAISDSATSTYYADSVKGRFTISRDNAKNTVYLQMNSLKPEDTAVYYCDAYSHYVGYEYWGQGTQVTVSS,high polyreactivity
20,QVQLVESGGGLFQAGGSLRVSCAASGRTFRVYVMGSYRQAPGKERELVAAIRASGGITYYADSVKGRFTLSRDTAKNTVYLQMNSLKPEDTAVYYCAARPRTRYDYWGQGTQVTVSS,high polyreactivity
